Sequences and labels used below:
B1: 14-3-3 protein sigma (Homo sapiens), P31947 (parent)
chain: MERASLIQKAKLAEQAERYEDMAAFMKGAVEKGEELSCEERNLLSVAYKNVVGGQRAAWRVLSSIEQKSNEEGSEEKGPEVREYREKVETELQGVCDTVLGLLDSHLIKEAGDAESRVFYLKMKGDYYRYLAEVATGDDKKRIIDSARSAYQEAMDISKKEMPPTNPIRLGLALNFSVFHYEIANSPEEAISLAKTTFDEAMADLHTLSEDSYKDSTLIMQLLRDNLTLWTADNAGEEGGEAPQEPQS
partner: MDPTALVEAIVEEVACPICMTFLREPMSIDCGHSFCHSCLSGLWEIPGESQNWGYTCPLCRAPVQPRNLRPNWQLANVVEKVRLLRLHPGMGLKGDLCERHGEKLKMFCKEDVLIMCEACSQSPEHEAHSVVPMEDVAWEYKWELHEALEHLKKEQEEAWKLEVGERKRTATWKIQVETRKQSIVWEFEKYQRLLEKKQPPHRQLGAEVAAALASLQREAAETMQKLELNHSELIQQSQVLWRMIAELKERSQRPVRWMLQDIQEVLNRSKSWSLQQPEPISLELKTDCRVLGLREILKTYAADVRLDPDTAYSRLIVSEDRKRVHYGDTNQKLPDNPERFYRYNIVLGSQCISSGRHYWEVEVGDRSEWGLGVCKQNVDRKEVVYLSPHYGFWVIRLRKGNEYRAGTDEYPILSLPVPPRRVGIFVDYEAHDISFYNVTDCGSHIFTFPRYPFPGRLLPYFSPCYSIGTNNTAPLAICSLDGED
B2: 14-3-3 protein sigma (Homo sapiens), P31947 (parent)
chain: B1 chain
partner: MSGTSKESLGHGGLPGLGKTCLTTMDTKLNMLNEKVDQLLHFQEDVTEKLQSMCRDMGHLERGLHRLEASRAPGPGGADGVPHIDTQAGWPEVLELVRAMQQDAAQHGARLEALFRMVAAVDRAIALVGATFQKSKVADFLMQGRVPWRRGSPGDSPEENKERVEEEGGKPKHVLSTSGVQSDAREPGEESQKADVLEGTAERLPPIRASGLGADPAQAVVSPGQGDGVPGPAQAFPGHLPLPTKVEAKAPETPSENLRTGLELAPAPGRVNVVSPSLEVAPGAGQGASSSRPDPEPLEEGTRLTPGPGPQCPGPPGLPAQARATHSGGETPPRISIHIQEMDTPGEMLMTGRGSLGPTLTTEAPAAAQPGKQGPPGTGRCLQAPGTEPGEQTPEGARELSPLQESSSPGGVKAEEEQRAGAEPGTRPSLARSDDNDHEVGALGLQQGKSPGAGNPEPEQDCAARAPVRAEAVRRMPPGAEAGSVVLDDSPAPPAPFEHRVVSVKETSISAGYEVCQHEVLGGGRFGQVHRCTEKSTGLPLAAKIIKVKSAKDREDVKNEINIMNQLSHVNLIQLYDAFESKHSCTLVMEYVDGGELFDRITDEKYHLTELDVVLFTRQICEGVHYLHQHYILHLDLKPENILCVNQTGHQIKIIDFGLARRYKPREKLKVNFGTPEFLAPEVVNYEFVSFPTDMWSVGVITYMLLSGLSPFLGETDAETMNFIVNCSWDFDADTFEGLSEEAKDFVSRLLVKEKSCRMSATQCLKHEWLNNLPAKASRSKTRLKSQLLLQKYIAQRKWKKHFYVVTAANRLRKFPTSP
B3: 14-3-3 protein sigma (Homo sapiens), P31947 (parent)
chain: B1 chain
partner: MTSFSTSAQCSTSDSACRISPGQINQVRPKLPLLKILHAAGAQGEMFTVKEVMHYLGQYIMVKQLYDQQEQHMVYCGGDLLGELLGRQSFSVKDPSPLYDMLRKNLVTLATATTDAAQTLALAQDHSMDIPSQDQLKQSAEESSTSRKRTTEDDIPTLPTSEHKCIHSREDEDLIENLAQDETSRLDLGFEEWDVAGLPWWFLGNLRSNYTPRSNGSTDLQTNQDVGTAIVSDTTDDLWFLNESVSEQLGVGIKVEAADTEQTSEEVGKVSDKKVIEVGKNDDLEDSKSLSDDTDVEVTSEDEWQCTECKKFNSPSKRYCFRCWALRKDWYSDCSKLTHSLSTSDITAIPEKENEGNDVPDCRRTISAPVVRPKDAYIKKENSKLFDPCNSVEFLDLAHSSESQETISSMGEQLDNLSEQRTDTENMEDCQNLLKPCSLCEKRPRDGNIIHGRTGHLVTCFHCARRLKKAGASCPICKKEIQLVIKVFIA
B4: 14-3-3 protein sigma (Homo sapiens), P31947 (parent)
chain: B1 chain
partner: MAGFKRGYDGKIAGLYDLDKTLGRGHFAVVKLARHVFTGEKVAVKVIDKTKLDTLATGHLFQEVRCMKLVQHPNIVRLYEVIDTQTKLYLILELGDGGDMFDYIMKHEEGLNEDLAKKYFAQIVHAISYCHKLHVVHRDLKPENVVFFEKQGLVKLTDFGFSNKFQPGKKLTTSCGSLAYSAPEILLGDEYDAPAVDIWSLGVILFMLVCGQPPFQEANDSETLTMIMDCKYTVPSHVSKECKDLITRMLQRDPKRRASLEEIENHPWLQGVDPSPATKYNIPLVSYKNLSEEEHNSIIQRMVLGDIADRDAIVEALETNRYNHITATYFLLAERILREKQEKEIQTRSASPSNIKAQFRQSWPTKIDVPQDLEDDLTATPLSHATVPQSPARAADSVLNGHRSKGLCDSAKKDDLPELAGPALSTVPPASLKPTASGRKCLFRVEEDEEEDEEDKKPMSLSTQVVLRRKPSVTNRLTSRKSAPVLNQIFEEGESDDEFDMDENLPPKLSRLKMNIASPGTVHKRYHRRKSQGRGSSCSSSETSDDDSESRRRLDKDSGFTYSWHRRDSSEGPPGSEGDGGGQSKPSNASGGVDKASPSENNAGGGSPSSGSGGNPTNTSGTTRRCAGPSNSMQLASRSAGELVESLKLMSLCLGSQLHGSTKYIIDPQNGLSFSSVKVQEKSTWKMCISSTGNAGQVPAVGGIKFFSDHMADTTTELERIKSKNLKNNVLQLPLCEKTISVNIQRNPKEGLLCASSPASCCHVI
B5: 14-3-3 protein sigma (Homo sapiens), P31947 (parent)
chain: B1 chain
partner: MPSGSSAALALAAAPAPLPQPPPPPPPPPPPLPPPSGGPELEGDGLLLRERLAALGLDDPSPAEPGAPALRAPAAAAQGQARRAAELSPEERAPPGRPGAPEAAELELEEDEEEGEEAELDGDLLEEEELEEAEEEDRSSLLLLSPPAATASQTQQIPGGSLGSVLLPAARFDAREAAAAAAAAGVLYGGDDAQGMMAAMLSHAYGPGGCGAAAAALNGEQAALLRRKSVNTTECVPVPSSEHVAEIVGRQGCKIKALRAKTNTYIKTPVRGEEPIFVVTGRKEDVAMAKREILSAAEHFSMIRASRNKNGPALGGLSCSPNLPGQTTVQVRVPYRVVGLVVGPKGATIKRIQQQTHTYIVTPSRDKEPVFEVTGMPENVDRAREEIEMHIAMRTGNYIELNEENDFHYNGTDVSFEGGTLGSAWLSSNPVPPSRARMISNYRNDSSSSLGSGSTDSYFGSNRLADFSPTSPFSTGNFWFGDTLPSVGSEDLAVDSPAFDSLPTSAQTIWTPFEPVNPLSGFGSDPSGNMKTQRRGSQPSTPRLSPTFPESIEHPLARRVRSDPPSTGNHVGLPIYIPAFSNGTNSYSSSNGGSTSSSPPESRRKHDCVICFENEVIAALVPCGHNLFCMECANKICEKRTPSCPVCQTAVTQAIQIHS
B6: 14-3-3 protein sigma (Homo sapiens), P31947 (parent)
chain: B1 chain
partner: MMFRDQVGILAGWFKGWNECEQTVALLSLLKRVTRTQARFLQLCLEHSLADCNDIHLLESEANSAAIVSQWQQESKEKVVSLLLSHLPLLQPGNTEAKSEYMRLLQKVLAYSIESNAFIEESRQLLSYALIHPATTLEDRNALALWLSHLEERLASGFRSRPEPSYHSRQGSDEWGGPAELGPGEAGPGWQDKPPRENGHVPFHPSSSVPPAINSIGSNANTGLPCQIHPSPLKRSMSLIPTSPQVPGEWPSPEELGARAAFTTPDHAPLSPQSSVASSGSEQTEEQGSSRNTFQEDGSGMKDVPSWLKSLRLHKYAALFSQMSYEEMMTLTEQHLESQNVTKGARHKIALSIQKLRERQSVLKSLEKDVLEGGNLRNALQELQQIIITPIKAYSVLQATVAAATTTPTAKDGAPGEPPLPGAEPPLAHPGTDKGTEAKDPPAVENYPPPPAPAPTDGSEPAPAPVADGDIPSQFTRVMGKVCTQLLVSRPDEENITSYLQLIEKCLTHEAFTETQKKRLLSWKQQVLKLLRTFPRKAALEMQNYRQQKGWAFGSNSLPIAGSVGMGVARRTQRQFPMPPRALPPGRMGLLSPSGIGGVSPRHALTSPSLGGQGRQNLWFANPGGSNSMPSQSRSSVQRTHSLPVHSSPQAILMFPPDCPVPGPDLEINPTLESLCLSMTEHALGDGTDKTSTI
B7: 14-3-3 protein sigma (Homo sapiens), P31947 (parent)
chain: B1 chain
partner: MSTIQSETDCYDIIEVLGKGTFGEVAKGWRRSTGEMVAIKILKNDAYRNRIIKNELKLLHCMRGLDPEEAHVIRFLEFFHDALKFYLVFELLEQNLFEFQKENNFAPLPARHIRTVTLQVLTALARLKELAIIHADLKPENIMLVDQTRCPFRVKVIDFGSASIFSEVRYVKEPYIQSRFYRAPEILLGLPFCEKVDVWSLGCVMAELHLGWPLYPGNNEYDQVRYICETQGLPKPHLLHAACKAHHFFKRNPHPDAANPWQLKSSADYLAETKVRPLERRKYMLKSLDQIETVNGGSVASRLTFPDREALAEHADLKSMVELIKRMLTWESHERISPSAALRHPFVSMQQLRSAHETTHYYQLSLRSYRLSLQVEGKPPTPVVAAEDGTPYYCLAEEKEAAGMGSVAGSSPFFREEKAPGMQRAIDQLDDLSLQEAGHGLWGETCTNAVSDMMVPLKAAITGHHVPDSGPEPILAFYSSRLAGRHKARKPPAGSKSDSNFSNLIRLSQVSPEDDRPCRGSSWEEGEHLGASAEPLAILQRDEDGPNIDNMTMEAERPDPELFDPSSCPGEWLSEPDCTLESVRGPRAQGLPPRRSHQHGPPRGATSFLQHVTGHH

The first assay covers variants of B1. Conditions: with tri68_human TRIM68, Q6AZZ1.
With K49E;R56E;V178D, the “effect of a mutation on the interaction” value was “decreasing interaction strength”.

In another assay the parent is B2. Conditions: with mylk3_human MYLK3, Q32MK0.
Take K49E;R56E;V178D: the “effect of a mutation on the interaction” value was “decreasing interaction strength”.

Variants of B3 are the subject of a further assay. Conditions: with mdm4_human MDM4, O15151.
With K49E;R56E;V178D, the “effect of a mutation on the interaction” value is “decreasing interaction strength”.

Variants of B4 are the subject of a further assay. The note with it: with snrk_human SNRK.
With K49E;R56E;V178D, the “effect of a mutation on the interaction” value is on record as “decreasing interaction strength”.

In another assay the parent is B5. Conditions: with mex3c_human MEX3C.
As to K49E;R56E;V178D, the “effect of a mutation on the interaction” value is recorded as “decreasing interaction strength”.

Variants of B6 are the subject of another assay. The note with it: with smag2_human SAMD4B.
Consider K49E;R56E;V178D, for which the “effect of a mutation on the interaction” value is recorded as “decreasing interaction strength”.

Variants of B7 are the subject of another assay. Conditions: with hipk4_human HIPK4, Q8NE63.
In the case of K49E;R56E;V178D, the “effect of a mutation on the interaction” value is reported as “decreasing interaction strength”.

Values taken from IntAct's records for PubMed 36931259.
